Read-outs that look alike come from different tables or passages of the source.
Tests used:
[1] = test system: CCR-5 ZFN (AAACTGCAAAAG) (synthetic); test: cell_activity; conditions: K562, with p31
[2] = test system: ZFP-FokI 10-residue ZC linker (synthetic); test: cleavage_in_vitro
[3] = test system: ZFP-FokI 2-residue ZC linker (synthetic); test: cleavage_in_vitro
[4] = test system: ZFP-FokI 4-residue ZC linker (synthetic); test: cleavage_in_vitro
[5] = test system: 296S ZFP-FokI (cells) (synthetic); test: cell_activity; conditions: with 287; 0.6 alone, 0.01 donor only
[6] = test system: 296S ZFP-FokI E490K E490K (FokI numbering) (synthetic); test: cell_activity; conditions: with 287 Q486E; 0.01 alone
[7] = test system: CCR-5 ZFN (GATGAGGATGAC) (synthetic); test: cell_activity; conditions: K562, with p32
[8] = test system: 287A ZFP-FokI (cells) (synthetic); test: cell_activity; conditions: with 296; 0.16 alone, 0.01 donor only
[9] = test system: 287A ZFP-FokI Q486E Q486E (FokI numbering) (synthetic); test: cell_activity; conditions: with 296 E490K; 0.0 alone

Sequence: AAACTGCAAAAG (double strand) [CCR-5 site 2]
- activity (% targeted insertion) [1]: 1

Sequence: CTAGCATTATCCGAGTTACACAACTCGGATAATGCTAG (double strand) [4 bp separation]
- activity [2]: 4 % cleaved
- activity [3]: 74 % cleaved
- activity ([4]; Mg, Zn, 37 C): 74 % cleaved

Sequence: CTAGCATTATCCGAGTTCAACCACCAACCACACCAACACAACTCGGATAATGCTAG (double strand) [22 bp separation]
- activity [4]: 5 % cleaved

Sequence: CTAGCATTATCCGAGTTCAACCACCAACCACACCAACACCACCAACTCGGATAATGCTAG (double strand) [26 bp separation]
- activity [4]: 35 % cleaved

Sequence: CTAGCATTATCCGAGTTCAACCACCAACCACACCAACTCGGATAATGCTAG (double strand) [17 bp separation]
- activity [4]: 77 % cleaved

Sequence: CTAGCATTATCCGAGTTCACACAACTCGGATAATGCTAG (double strand) [5 bp separation]
- activity [4]: 92 % cleaved

Sequence: CTAGCATTATCCGAGTTCACACACAACTCGGATAATGCTAG (double strand) [7 bp separation]
- activity [4]: 80 % cleaved

Sequence: CTAGCATTATCCGAGTTCACACACACAACTCGGATAATGCTAG (double strand) [9 bp separation]
- activity [4]: 23 % cleaved

Sequence: CTAGCATTATCCGAGTTCACCACACAACTCGGATAATGCTAG (double strand) [8 bp separation]
- activity [2]: 63 % cleaved
- activity [4]: 8 % cleaved

Sequence: CTAGCATTATCCGAGTTCACCACCAACACAACTCGGATAATGCTAG (double strand) [12 bp separation]
- activity [4]: 22 % cleaved

Sequence: CTAGCATTATCCGAGTTCACCACCAACCACACAACTCGGATAATGCTAG (double strand) [15 bp separation]
- activity [2]: 88 % cleaved
- activity [4]: 97 % cleaved

Sequence: CTAGCATTATCCGAGTTCACCACCAACCACACCAACTCGGATAATGCTAG (double strand) [16 bp separation]
- activity [3]: 59 % cleaved
- activity [4]: 100 % cleaved

Sequence: CTAGGCATTATCCGAGTTCACCACAACTCGGATAATGACTAG (double strand) [6 bp separation]
- activity [2]: 76 % cleaved
- activity [3]: 78 % cleaved
- activity [4]: 95 % cleaved

Sequence: GAAGCAGCA (double strand) [296S site]
- activity (% corrected cells) [5]: 1.2
- activity (% corrected cells) [6]: 0.62

Sequence: GATGAGGATGAC (double strand) [CCR-5 site 1]
- activity (% targeted insertion) [7]: 1

Sequence: GGGGTAGCGG (double strand) [287A site]
- activity (% corrected cells) [8]: 1.2
- activity (% corrected cells) [9]: 0.62

Source: US20090258363
